# B1: Tubulin-folding cofactor A (Arabidopsis thaliana (Mouse-ear cress)), O04350 (parent)
# chain: MATIRNLKIKTSTCKRIVKELHSYEKEVEREAAKTADMKDKGADPYDLKQQENVLGESRMMIPDCHKRLESALADLKSTLAELEETDEKEGPEIEDAKKTVADVEKQFPTEDA
# Variants of: B1
# Conditions: with tbb9_arath TUBB9, P29517
# Chain of tbb9_arath TUBB9, P29517 (P29517 whole entry): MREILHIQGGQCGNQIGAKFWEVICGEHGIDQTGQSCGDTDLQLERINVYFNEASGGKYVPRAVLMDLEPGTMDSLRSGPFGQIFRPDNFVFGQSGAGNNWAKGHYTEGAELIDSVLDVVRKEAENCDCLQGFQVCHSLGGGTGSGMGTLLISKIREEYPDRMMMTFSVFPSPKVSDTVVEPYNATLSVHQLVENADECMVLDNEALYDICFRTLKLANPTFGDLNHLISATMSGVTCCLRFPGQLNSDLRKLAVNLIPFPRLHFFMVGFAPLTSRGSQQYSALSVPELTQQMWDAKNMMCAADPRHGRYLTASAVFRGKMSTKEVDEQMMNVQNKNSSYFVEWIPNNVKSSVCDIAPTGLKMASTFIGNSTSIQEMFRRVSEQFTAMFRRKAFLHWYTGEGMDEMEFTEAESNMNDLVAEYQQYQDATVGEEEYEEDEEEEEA
row,effect of a mutation on the interaction,Variant
1,disrupting interaction,E57A

# Variants of: B1
# Conditions: with tbb9_arath TUBB9, P29517
# Remark: another data set of the same source
row,effect of a mutation on the interaction,Variant
1,disrupting interaction,Y24A

# Variants of: B1
# Conditions: with tbb9_arath TUBB9, P29517
# Remark: another data set of the same source
row,effect of a mutation on the interaction,Variant
1,disrupting interaction,E20A

# Source: IntAct's records for PubMed 20638386
